The assay has as its target Fas on primary mouse hepatocytes (mouse) (UniProt P25446). Kind of assay: cell-based or functional assay.
UniProt P25446, sequence (P25446 22-327): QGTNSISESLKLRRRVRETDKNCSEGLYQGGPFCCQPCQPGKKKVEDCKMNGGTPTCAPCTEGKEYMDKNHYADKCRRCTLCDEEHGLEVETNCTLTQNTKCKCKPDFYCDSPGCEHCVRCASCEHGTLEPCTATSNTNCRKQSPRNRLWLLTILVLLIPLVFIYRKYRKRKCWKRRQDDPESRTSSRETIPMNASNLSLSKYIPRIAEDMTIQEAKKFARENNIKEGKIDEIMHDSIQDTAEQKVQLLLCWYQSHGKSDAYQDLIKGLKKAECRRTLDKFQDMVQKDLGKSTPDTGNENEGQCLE

Take agonistic anti-Fas antibody (Jo2): the TUNEL-stained cells, hepatocytes from Fas (sequence1)-siRNA treated mice (Fas expression silenced), Jo2 500 ng/mL for 24 hours worked out at 7.9% and the apoptotic cells by FITC-TUNEL staining, hepatocytes from untreated or mock-treated mice, Jo2 500 ng/mL for 24 hours stood at 87.8%.

For the origin of these results see patent US20070254850A1.
